Where a chain is given by its changes, count along the chain named. Numbers in names are those of the source.
B1: PYR1^K59R,F108A (receptor, not shown: small tags and cut ends)
chain: MPSELTPEERSELKNSIAEFHTYQLDPGSCSSLHAQRIHAPPELVWSIVRRFDKPQTYRHFIKSCSVEQNFEMRVGCTRDVIVISGLPANTSTERLDILDDERRVTGASIIGGEHRLTNYKSVTTVHRFEKENRIWTVVLESYVVDMPEGNSEDDTRMFADTVVKLNLQKLATVAEAMARNSGDGSGSQVT
notes: pBD-PYR1 fusion in yeast
B2: PYR1^K59R,A160I (receptor, not shown: small tags and cut ends)
chain: B1 chain with A108F, A160I
notes: pBD-PYR1 fusion in yeast
B3: PYR1^K59R,A160N (receptor, not shown: small tags and cut ends)
chain: B1 chain with A108F, A160N
notes: pBD-PYR1 fusion in yeast
B4: PYR1^K59R,A160S (receptor, not shown: small tags and cut ends)
chain: B1 chain with A108F, A160S
notes: pBD-PYR1 fusion in yeast
B5: PYR1^K59R,A160T (receptor, not shown: small tags and cut ends)
chain: B1 chain with A108F, A160T
notes: pBD-PYR1 fusion in yeast
B6: PYR1^K59R,A160V (receptor, not shown: small tags and cut ends)
chain: B1 chain with A108F, A160V
notes: pBD-PYR1 fusion in yeast
B7: PYR1^K59R,A160Y (receptor, not shown: small tags and cut ends)
chain: B1 chain with A108F, A160Y
notes: pBD-PYR1 fusion in yeast
B8: PYR1^K59R,E141F (receptor)
chain: B1 chain with A108F, E141F
notes: pBD-PYR1 fusion in yeast
B9: PYR1^K59R,E141H (receptor, not shown: small tags and cut ends)
chain: B1 chain with A108F, E141H
notes: pBD-PYR1 fusion in yeast
B10: PYR1^K59R,E141L (receptor, not shown: small tags and cut ends)
chain: B1 chain with A108F, E141L
notes: pBD-PYR1 fusion in yeast
B11: PYR1^K59R,E141Q (receptor, not shown: small tags and cut ends)
chain: B1 chain with A108F, E141Q
notes: pBD-PYR1 fusion in yeast
B12: PYR1^K59R,F108A,S122G (receptor, not shown: small tags and cut ends)
chain: B1 chain with S122G
notes: pBD-PYR1 fusion in yeast; also called pBD-PYR1^K59R,F108A,S122G
B13: PYR1^K59R,F108A,S122G,A160V (receptor)
chain: B1 chain with S122G, A160V
notes: pBD-PYR1 fusion in yeast
B14: PYR1^K59R,F108A,S122G,F159L (receptor)
chain: B1 chain with S122G, F159L
notes: pBD-PYR1 fusion in yeast
B15: PYR1^K59R,F108A,S122G,F159M (receptor)
chain: B1 chain with S122G, F159M
notes: pBD-PYR1 fusion in yeast
B16: PYR1^K59R,F108A,S122G,F159V (receptor)
chain: B1 chain with S122G, F159V
notes: pBD-PYR1 fusion in yeast
B17: PYR1^K59R,F108A,S122G,L87A (receptor)
chain: B1 chain with L87A, S122G
notes: pBD-PYR1 fusion in yeast
B18: PYR1^K59R,F108A,S122G,V81C (receptor, not shown: small tags and cut ends)
chain: B1 chain with V81C, S122G
notes: pBD-PYR1 fusion in yeast
B19: PYR1^K59R,F108A,S122G,V81I (receptor, not shown: small tags and cut ends)
chain: B1 chain with V81I, S122G
notes: pBD-PYR1 fusion in yeast
B20: PYR1^K59R,F108A,S122G,V81T (receptor, not shown: small tags and cut ends)
chain: B1 chain with V81T, S122G
notes: pBD-PYR1 fusion in yeast
B21: PYR1^K59R,F108A,S122G,V83L (receptor)
chain: B1 chain with V83L, S122G
notes: pBD-PYR1 fusion in yeast
B22: PYR1^K59R,F108A,S122G,V164I (receptor)
chain: B1 chain with S122G, V164I
notes: pBD-PYR1 fusion in yeast
B23: PYR1^K59R,F108C (receptor, not shown: small tags and cut ends)
chain: B1 chain with A108C
notes: pBD-PYR1 fusion in yeast
B24: PYR1^K59R,F108G (receptor, not shown: small tags and cut ends)
chain: B1 chain with A108G
notes: pBD-PYR1 fusion in yeast
B25: PYR1^K59R,F108I (receptor, not shown: small tags and cut ends)
chain: B1 chain with A108I
notes: pBD-PYR1 fusion in yeast
B26: PYR1^K59R,F108I,S122G (receptor, not shown: small tags and cut ends)
chain: B1 chain with A108I, S122G
notes: pBD-PYR1 fusion in yeast
B27: PYR1^K59R,F108N (receptor, not shown: small tags and cut ends)
chain: B1 chain with A108N
notes: pBD-PYR1 fusion in yeast
B28: PYR1^K59R,F108Q (receptor, not shown: small tags and cut ends)
chain: B1 chain with A108Q
notes: pBD-PYR1 fusion in yeast
B29: PYR1^K59R,F108Q,S122G (receptor, not shown: small tags and cut ends)
chain: B1 chain with A108Q, S122G
notes: pBD-PYR1 fusion in yeast
B30: PYR1^K59R,F108S (receptor)
chain: B1 chain with A108S
notes: pBD-PYR1 fusion in yeast
B31: PYR1^K59R,F108T (receptor, not shown: small tags and cut ends)
chain: B1 chain with A108T
notes: pBD-PYR1 fusion in yeast
B32: PYR1^K59R,H115N (receptor)
chain: B1 chain with A108F, H115N
notes: pBD-PYR1 fusion in yeast
B33: PYR1^K59R,I110M (receptor, not shown: small tags and cut ends)
chain: B1 chain with A108F, I110M
notes: pBD-PYR1 fusion in yeast
B34: PYR1^K59R,M158A (receptor, not shown: small tags and cut ends)
chain: B1 chain with A108F, M158A
notes: pBD-PYR1 fusion in yeast
B35: PYR1^K59R,M158G (receptor, not shown: small tags and cut ends)
chain: B1 chain with A108F, M158G
notes: pBD-PYR1 fusion in yeast
B36: PYR1^K59R,M158L (receptor, not shown: small tags and cut ends)
chain: B1 chain with A108F, M158L
notes: pBD-PYR1 fusion in yeast
B37: PYR1^K59R,M158S (receptor, not shown: small tags and cut ends)
chain: B1 chain with A108F, M158S
notes: pBD-PYR1 fusion in yeast
B38: PYR1^K59R,N167A (receptor, not shown: small tags and cut ends)
chain: B1 chain with A108F, N167A
notes: pBD-PYR1 fusion in yeast
B39: PYR1^K59R,N167D (receptor, not shown: small tags and cut ends)
chain: B1 chain with A108F, N167D
notes: pBD-PYR1 fusion in yeast
B40: PYR1^K59R,N167G (receptor, not shown: small tags and cut ends)
chain: B1 chain with A108F, N167G
notes: pBD-PYR1 fusion in yeast
B41: PYR1^K59R,N167Q (receptor, not shown: small tags and cut ends)
chain: B1 chain with A108F, N167Q
notes: pBD-PYR1 fusion in yeast
B42: PYR1^K59R,N167S (receptor, not shown: small tags and cut ends)
chain: B1 chain with A108F, N167S
notes: pBD-PYR1 fusion in yeast
B43: PYR1^K59R,N167T (receptor, not shown: small tags and cut ends)
chain: B1 chain with A108F, N167T
notes: pBD-PYR1 fusion in yeast
B44: PYR1^K59R,T162L (receptor, not shown: small tags and cut ends)
chain: B1 chain with A108F, T162L
notes: pBD-PYR1 fusion in yeast
B45: PYR1^K59R,V164A (receptor, not shown: small tags and cut ends)
chain: B1 chain with A108F, V164A
notes: pBD-PYR1 fusion in yeast
B46: PYR1^K59R,V164C (receptor, not shown: small tags and cut ends)
chain: B1 chain with A108F, V164C
notes: pBD-PYR1 fusion in yeast
B47: PYR1^K59R,V164E (receptor, not shown: small tags and cut ends)
chain: B1 chain with A108F, V164E
notes: pBD-PYR1 fusion in yeast
B48: PYR1^K59R,V164F (receptor, not shown: small tags and cut ends)
chain: B1 chain with A108F, V164F
notes: pBD-PYR1 fusion in yeast
B49: PYR1^K59R,V164G (receptor, not shown: small tags and cut ends)
chain: B1 chain with A108F, V164G
notes: pBD-PYR1 fusion in yeast
B50: PYR1^K59R,V164H (receptor, not shown: small tags and cut ends)
chain: B1 chain with A108F, V164H
notes: pBD-PYR1 fusion in yeast
B51: PYR1^K59R,V164L (receptor, not shown: small tags and cut ends)
chain: B1 chain with A108F, V164L
notes: pBD-PYR1 fusion in yeast
B52: PYR1^K59R,V164M (receptor, not shown: small tags and cut ends)
chain: B1 chain with A108F, V164M
notes: pBD-PYR1 fusion in yeast
B53: PYR1^K59R,V164N (receptor, not shown: small tags and cut ends)
chain: B1 chain with A108F, V164N
notes: pBD-PYR1 fusion in yeast
B54: PYR1^K59R,V164Q (receptor, not shown: small tags and cut ends)
chain: B1 chain with A108F, V164Q
notes: pBD-PYR1 fusion in yeast
B55: PYR1^K59R,V164S (receptor, not shown: small tags and cut ends)
chain: B1 chain with A108F, V164S
notes: pBD-PYR1 fusion in yeast
B56: PYR1^K59R,V164T (receptor, not shown: small tags and cut ends)
chain: B1 chain with A108F, V164T
notes: pBD-PYR1 fusion in yeast

Tests used:
[1] = target: T1, GAL4 activation domain fusion (ACT) to HAB1 (UniProt Q9CAJ0 23-511, limits assumed); assay: yeast two-hybrid, X-gal; lowest mandipropamid concentration giving signal
T1 construct: pACT-HAB1 fusion in yeast reporter strains; also called pACT-HAB1
T1 sequence (looked up): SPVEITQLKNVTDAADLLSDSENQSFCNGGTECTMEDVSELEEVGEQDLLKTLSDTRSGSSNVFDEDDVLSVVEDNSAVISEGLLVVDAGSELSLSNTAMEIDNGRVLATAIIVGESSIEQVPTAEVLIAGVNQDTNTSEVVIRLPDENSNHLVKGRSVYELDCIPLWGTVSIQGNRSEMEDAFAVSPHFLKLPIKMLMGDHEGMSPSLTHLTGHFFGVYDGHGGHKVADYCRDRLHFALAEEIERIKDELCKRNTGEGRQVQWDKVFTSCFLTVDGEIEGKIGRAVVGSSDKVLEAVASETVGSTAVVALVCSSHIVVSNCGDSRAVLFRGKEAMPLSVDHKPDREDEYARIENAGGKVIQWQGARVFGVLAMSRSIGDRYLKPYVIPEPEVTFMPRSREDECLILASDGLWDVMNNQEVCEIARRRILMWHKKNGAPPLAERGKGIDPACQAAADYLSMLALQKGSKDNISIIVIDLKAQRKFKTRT

[2] = target: T1, GAL4 activation domain fusion (ACT) to …; assay: yeast two-hybrid, X-gal; lowest dichlobenil concentration giving signal

Binder	Threshold [1] [µM]	Threshold [2] [µM]
B1	100	–
B2	–	100
B3	–	100
B4	–	100
B5	–	100
B6	–	100
B7	–	100
B8	–	100
B9	–	100
B10	–	100
B11	–	100
B12	1	–
B13	0.25	–
B14	0.05	–
B15	0.25	–
B16	0.25	–
B17	0.25	–
B18	0.25	–
B19	0.25	–

Binder	Threshold [1] [µM]	Threshold [2] [µM]
B20	0.25	–
B21	0.05	–
B22	0.25	–
B23	100	–
B24	100	–
B25	100	–
B26	10	–
B27	100	–
B28	100	–
B29	10	–
B30	100	–
B31	100	–
B32	–	100
B33	–	100
B34	–	100
B35	–	100
B36	–	100
B37	–	100
B38	–	100

Binder	Threshold [1] [µM]	Threshold [2] [µM]
B39	–	100
B40	–	100
B41	–	100
B42	–	100
B43	–	100
B44	–	100
B45	–	100
B46	–	100
B47	–	100
B48	–	100
B49	–	100
B50	–	100
B51	–	100
B52	–	100
B53	–	100
B54	–	100
B55	–	100
B56	–	100

Source: patent US20160115500A1 (University of California, published 2016)
